Experimental findings from US20240124615A1 (HEFEI TG IMMUNOPHARMA, published 2024) are described below.

Positions count from the first letter of the chain named.

Sequences and labels used below:
T1: Human B7H6 (ACRO biosystems, cat. No. B76-H52H8) (human, UniProt Q68D85 25-262)
T1 construct: Bought antigen; also called B7H6 antigen; human B7H6 protein
T1 sequence (looked up): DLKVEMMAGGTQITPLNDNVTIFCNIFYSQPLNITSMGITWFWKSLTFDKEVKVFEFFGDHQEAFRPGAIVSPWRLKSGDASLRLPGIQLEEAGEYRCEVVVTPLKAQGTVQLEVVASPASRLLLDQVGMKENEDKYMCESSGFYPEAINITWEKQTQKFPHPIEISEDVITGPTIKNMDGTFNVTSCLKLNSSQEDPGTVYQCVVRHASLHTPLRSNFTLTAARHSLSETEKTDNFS

B1: CD3xB7H6-2 bispecific antibody (bispecific antibody, human IgG1, L234A L235A)
chain 1: not shown
chain 2: DIVLTQSPDSLAVSLGERATINCKASQSVDYDGDSYMNWYQQKPGQPPKLLIYAASTLHSGVPDRFSGSGSGTDFTLTISSLQAEDVAVYYCQQSKEDPRTFGQGTKLEIKGGGGSGGGGSGGGGSEVQLVQSGAEVKKPGASVKVSCKASGYTFTDYNMDWVRQAPGQGLEWIGDINPNNGGTLYNQKFRGRVTLTVDTSISTAYMELSRLRSDDTAVYYCARSEVFYGNYADYWGQGTTVTVSSEPKSCDKTHTCPPCPAPEAAGGPSVFLFPPKPKDTLMISRTPEVTCVVVDVSHEDPEVKFNWYVDGVEVHNAKTKPREEQYNSTYRVVSVLTVLHQDWLNGKEYKCKVSNKALPAPIEKTISKAKGQPREPQVCTLPPSRDELTKNQVSLSCAVKGFYPSDIAVEWESNGQPENNYKTTPPVLDSDGSFFLVSKLTVDKSRWQQGNVFSCSVMHEALHNHYTQKSLSLSPGK
notes: Heterodimer of two scFv-Fc units, knob-into-hole human IgG1 Fc; name formed by analogy with CD3xB7H6-14
B2: CD3xB7H6-8 bispecific antibody (bispecific antibody, human IgG1, L234A L235A)
chain 1: not shown
chain 2: B1 chain 2 with V62I, Q169K, T200K
notes: as for B1
B3: CD3xB7H6-1 bispecific antibody (bispecific antibody, human IgG1, L234A L235A)
chain 1: not shown
chain 2: B1 chain 2 with I174M, L196M
notes: Heterodimer of two scFv-Fc monovalent units, knob-into-hole human IgG1 Fc; name formed by analogy with the printed CD3xB7H6-14
B4: CD3xB7H6-3 bispecific antibody (bispecific antibody, human IgG1, L234A L235A)
chain 1: not shown
chain 2: B1 chain 2 with T200K
notes: as for B1
B5: CD3xB7H6-7 bispecific antibody (bispecific antibody, human IgG1, L234A L235A)
chain 1: not shown
chain 2: B1 chain 2 with V62I, T200K
notes: as for B1
B6: CD3xB7H6-6 bispecific antibody (bispecific antibody, human IgG1, L234A L235A)
chain 1: not shown
chain 2: B1 chain 2 with V62I
notes: as for B1
B7: CD3xB7H6-4 bispecific antibody (bispecific antibody, human IgG1, L234A L235A)
chain 1: not shown
chain 2: B1 chain 2 with Q169K, T200K
notes: as for B1
B8: CD3xB7H6-5 bispecific antibody (bispecific antibody, human IgG1, L234A L235A)
chain 1: not shown
chain 2: B1 chain 2 with V62I, I174M, L196M
notes: as for B1
B9: CD3xB7H6-10 bispecific antibody (bispecific antibody, human IgG1, L234A L235A)
chain 1: not shown
chain 2: DIVLTQTPLSLSVTPGQPASISCKASQSVDYDGDSYMNWYLQKPGQPPQLLIYAASTLHSGVPDRFSGSGSGTDFTLKISRVEAEDVGVYYCQQSKEDPRTFGQGTKLEIKGGGGSGGGGSGGGGSEVQLVQSGAEVKKPGASVKVSCKASGYTFTDYNMDWVRQAPGQGLEWIGDINPNNGGTLYNQKFRGRVTLTVDTSISTAYMELSRLRSDDTAVYYCARSEVFYGNYADYWGQGTTVTVSSEPKSCDKTHTCPPCPAPEAAGGPSVFLFPPKPKDTLMISRTPEVTCVVVDVSHEDPEVKFNWYVDGVEVHNAKTKPREEQYNSTYRVVSVLTVLHQDWLNGKEYKCKVSNKALPAPIEKTISKAKGQPREPQVCTLPPSRDELTKNQVSLSCAVKGFYPSDIAVEWESNGQPENNYKTTPPVLDSDGSFFLVSKLTVDKSRWQQGNVFSCSVMHEALHNHYTQKSLSLSPGK
notes: as for B1
B10: CD3xB7H6-15 bispecific antibody (bispecific antibody, human IgG1, L234A L235A)
chain 1: not shown
chain 2: B9 chain 2 with V62I, T200K
notes: as for B1
B11: CD3xB7H6-9 bispecific antibody (bispecific antibody, human IgG1, L234A L235A)
chain 1: not shown
chain 2: B9 chain 2 with I174M, L196M
notes: as for B1
B12: CD3xB7H6-12 bispecific antibody (bispecific antibody, human IgG1, L234A L235A)
chain 1: not shown
chain 2: B9 chain 2 with Q169K, T200K
notes: as for B1
B13: CD3xB7H6-13 bispecific antibody (bispecific antibody, human IgG1, L234A L235A)
chain 1: not shown
chain 2: B9 chain 2 with V62I, I174M, L196M
notes: as for B1
B14: CD3xB7H6-16 bispecific antibody (bispecific antibody, human IgG1, L234A L235A)
chain 1: not shown
chain 2: B9 chain 2 with V62I, Q169K, T200K
notes: as for B1
B15: CD3xB7H6-14 bispecific antibody (bispecific antibody, human IgG1, L234A L235A)
chain 1: not shown
chain 2: B9 chain 2 with V62I
notes: Heterodimer of two scFv-Fc units, knob-into-hole human IgG1 Fc; lead molecule; also called CD3kB7H6-14
B16: CD3xB7H6-11 bispecific antibody (bispecific antibody, human IgG1, L234A L235A)
chain 1: not shown
chain 2: B9 chain 2 with T200K
notes: as for B1
B17: CD3xB7H6-17 bispecific antibody (bispecific antibody, human IgG1, L234A L235A)
chain 1: not shown
chain 2: DIVLTQSPVSLAVPLGQRATISCKASQSVDYDGDSYMNWYQQKPGQPPKLLIYAASTLHSGIPVRFSGSGSGTDFTLNIHPVEEEDAASYYCQQSKEDPRTFGGGTKLEIKGGGGSGGGGSGGGGSEVLLQQSGPEVVKPGASVKITCKASGYTFTDYNMDWVKQSHGKSLEWIGDINPNNAGTLYNQKFRGRVTLIVDKSSSTAYMELRSLTSDDTAVYYCARSEVFYGNYADYWGQGTTLTVSSEPKSCDKTHTCPPCPAPEAAGGPSVFLFPPKPKDTLMISRTPEVTCVVVDVSHEDPEVKFNWYVDGVEVHNAKTKPREEQYNSTYRVVSVLTVLHQDWLNGKEYKCKVSNKALPAPIEKTISKAKGQPREPQVCTLPPSRDELTKNQVSLSCAVKGFYPSDIAVEWESNGQPENNYKTTPPVLDSDGSFFLVSKLTVDKSRWQQGNVFSCSVMHEALHNHYTQKSLSLSPGK
notes: as for B1
B18: CD3xB7H6-18 bispecific antibody (bispecific antibody, human IgG1, L234A L235A)
chain 1: not shown
chain 2: B17 chain 2 with G33A, A182G
notes: as for B1

The target of the test is T1, Human B7H6 (ACRO biosystems, cat. No. …). The test can be described thus: ELISA, B7H6 coated, HRP anti-human IgG detection. The protocol:
Human B7H6 (ACRO biosystems, cat. No. B76-H52H8) and human CD3 antigen (ACRO biosystems, cat. No. CDD-H52W1) were diluted to 2 μg/mL with coating buffer (35 mM NaHCO₃, 15 mM Na₂CO₃, pH 9.6), respectively. 100 μL of the diluted solution was added to each well of an ELISA plate at 4° C. overnight, and then washes with PBST (0.05% Tween 20-PBS, pH 7.2) 3 times. 300 μL of blocking buffer (1% BSA, 0.05% Tween20-PBS, pH 7.2) was added to the plate and allowed to stand at room temperature for 2 h, followed by washing with PBST three times. The corresponding bispecific antibody was added to each well and incubated at room temperature for 1 h, followed by washing with PBST three times. 100 μL of HRP-rabbit anti human IgG secondary antibody (Boster, cat. No. BA1070) diluted in blocking buffer was added to each well and incubated for 1 h at room temperature, followed by washing with PBST three times. TMB was added into each well. The plate was kept away from light at room temperature for 2-5 min, the reaction was stopped by adding 2 M sulfuric acid in each well, and finally OD450 values were read with microplate reader.
For the molecule B1, the binding result is “binds”. With B2, the binding result was “binds”.

Take B3: the binding result is recorded as “binds”. Consider B4, for which the binding result is “binds”.

For B5, the binding result was “binds”. In the case of B6, the binding result is recorded as “binds”. Under B7 stands “binds”; under B8, “binds”; under B9, “binds”. Take B10: the binding result is “binds”.

As for B11, the binding result is on record as “binds”. Under B12 stands “binds”; under B13, “binds”. Then B14, with “binds”. Then B15, with “binds”; and B16, with “binds”; and B17, with “binds”. B18: the binding result is reported as “binds”.
